Several values for one entry are separate records, joined by “and”; a condition that tells them apart may be missing. Identical values can stand only once. Entries after “also recorded” stand apart in the source; their conditions may differ.

Consider two substances from paper PMC4019693 (Nanomedicine : nanotechnology, biology, and medicine, 2013).

Data set [1] relates to Aβ40. The note with it: cited from earlier work.
The test system of data set [2] is Aβ40. In words: SMFS of Aβ40 interaction. The data set is classed as binding. As to conditions: Aβ40 vs Aβ42, neutral pH; ref [10].
The target of data set [3] is T1, Aβ42 (Homo sapiens, UniProt P05067). In words: Contour length analysis of Aβ42 dimers. Format: binding. The note with it: for Prevailing region of interpeptide interaction: in words.
Data set [4] is described as follows: SDS-page gel experiment, monomer state of Aβ42. Format: physicochemical. As to conditions: diluted in different pH buffers from DMSO stock solution (Fig. S1).
The target in data set [5] is T1, Aβ42. In words: Dynamic force spectroscopy. Format: binding. As to conditions: for Lifetime of the dimer: calculated by k^−1off, SD from five independent experiments.
Data set [6] addresses T1, Aβ42. Put plainly: Single-molecule AFM force spectroscopy. The data set is classed as binding. The note with it: pH 7.
Setting [7] is: pH 7, area under Gaussian curve.
The mark [8] stands for this setting: single representative curve (Fig. 2A), WLC fit, ALR ~4,000 pN/s.

T1 sequence (P05067 672-713 limits assumed): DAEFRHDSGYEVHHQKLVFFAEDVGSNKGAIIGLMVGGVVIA

With “Aβ40: Aβ protein containing 40 residues; Aβ42 differs by two extra C terminal residues (I41 and A42)”, the “Dimer lifetime relative to monomer dynamics” value in data set [1] (Aβ40 dimer lifetime vs monomer dynamics, ref [10]) was ~10^6 times. The “Conformer population, major interactions (L0 and L1)” value in data set [1] (pH 7, N-terminal segment interactions, ref [10]) is given as 74%. Besides, in data set [1] (ref [10]), the “Lifetime of misfolded Aβ40 dimers” value was 0.1 s. For the same substance, the “Rupture forces of dimers compared to Aβ42” value in data set [1] (result in words, reference not given, Aβ40 study is ref [10]) is “quite similar to those for Aβ42”. Also, the “Dimer lifetime relative to Aβ42” value in data set [2] is given as “four times shorter”.

As for “Aβ42: Aβ42 terminated with cysteine at N-terminus (AnaSpec, Inc., Fremont, CA)”, in data set [3] (acidic pH (2.7)), the “Prevailing region of interpeptide interaction” value is “interaction within the peptide center prevailed”. The “Conformer population, model L3 (C-termini), change vs pH 7” value in data set [3] (pH 2.7 vs pH 7, result in words) is listed as “three-fold drop in the interaction between the C-termini (model L3)”. Moreover, in data set [3] (setting [7]), the “Conformer population, model L0 (interactions very close to N-termini)” value is 13% and the “Conformer population, model L1 (middle segments)” value stood at 29%. The “Prevailing region of interpeptide interaction” value in data set [3] (pH 7) was “Interaction via C-terminal segments prevailed”. In addition, the “Contour length, Gaussian center L0” value in data set [3] (pH 7 and 2.7, L0) was “around 35 nm”. Moreover, the “Contour length, Gaussian center L1” value in data set [3] (pH 7 and 2.7, L1) is listed as roughly 41 nm. In data set [3] (pH 7 and 2.7, L2), the “Contour length, Gaussian center L2” value was roughly 47 nm. Further, in data set [3] (pH 7 and 2.7, L3), the “Contour length, Gaussian center L3” value was roughly 53 nm. Besides, in data set [4], the “Monomer state by SDS-page gel” value is recorded as “The monomer state of Aβ42 diluted in different pH buffers from the stock solution was confirmed”. In addition, the “Lifetime of dimers (in words)” value in data set [5] (SMFS/DFS, pH not given) is “in the range of a second; also recorded: higher than that of Aβ40”. The “Lifetime of the dimer” value in data set [5] (pH 2.7) was 2.5±0.7 s and 2.5 s and 2.5 (±0.7) s. In data set [5] (pH 2.7 vs pH 7), the “Increase of the dimer lifetime, pH 2.7 vs pH 7” value is listed as roughly 5 fold. The “Lifetime of the dimer” value in data set [5] (pH 7) is recorded as 0.46 (±0.25) s. For the same substance, the “ΔG, barrier height for dimer dissociation” value in data set [5] (pH 7, calculated from koff) was ~ 28.3 kBT. Further, the “Rupture force of representative curves with various contour lengths” value in data set [6] (four curves of Fig. 4A, similar ALR (~20,000 pN/s)) is given as 150±20 pN. Further, in data set [6] (setting [8]), the “Contour length, representative F-D curve” value is ~ 58 nm and the “Rupture force, representative F-D curve” value is given as ~ 83 pN.
